# Test results as given in US20170260241A1 (KEMYTH BIOTECH, published 2017).
# Legend:
# [1] = biological target: T1, recombinant TLR4 protein; experiment: competition ELISA: TLR4 coated (2 µg/mL), MD2 (50 nM) mixed with titrated peptide, residual bound MD2 detected with anti-MD2 and anti-mouse IgG-HRP, OD450; competed ligand: MD2
# T1 construct: also called Toll-like receptor 4
# [2] = biological target: T1, recombinant TLR4 protein; experiment: competition ELISA: peptide titrated from 50 µM to 3.05 nM against MD2 (50 nM) on plate-coated TLR4; competitor MD2
binder,measurement,setting,value
"C70PLY4 (C-terminal 70 amino acid fragment of pneumolysin, 402-471 amino acid residues) (peptide) peptide: QDLTAHFTTSIPLKGNVRNLSVKIRECTGLAWEWWRTVYEKTDLPLVRKRTISIWGTTLYPQVEDKVEND",IC50 (read off the curve),[1],~300 nM
same,Ki,[2],74.8 nM
"QDLTAHFTTSIPLKGNVRNLSVKIRECTGLAWEWW [N35PLY4 (N-terminal 35 amino acid fragment of C70PLY4, 402-436 amino acid residues)]",Ki,[2],11200 nM
